Results from US7354588B1, “Functional derivatives of ICAM-1 with altered ability to bind LFA-1 or HRV” (Dana Farber Cancer Institute, priority 1987, dated 2008).
Substitutions are numbered along the chain they refer to.

B1: D71/N: ICAM-1 substitution mutant, D71 to N (protein, UniProt P05362 28-532, looked up, variant D71N)
Intercellular adhesion …: QTSVSPSKVILPRGGSVLVTCSTSCDQPKLLGIETPLPKKELLLPGNNRKVYELSNVQEDSQPMCYSNCPNGQSTAKTFLTVYWTPERVELAPLPSWQPVGKNLTLRCQVEGGAPRANLTVVLLRGEKELKREPAVGEPAEVTTTVLVRRDHHGANFSCRTELDLRPQGLELFENTSAPYQLQTFVLPATPPQLVSPRVLEVDTQGTVVCSLDGLFPVSEAQVHLALGDQRLNPTVTYGNDSFSAKASVSVTAEDEGTQRLTCAVILGNQSQETLQTVTIYSFPAPNVILTKPEVSEGTEVTVKCEAHPRAKVTLNGVPAQPLGPRAQLLLKATPEDNGRSFSCSATLEVAGQLIHKNQTRELRVLYGPRLDERDCPGNWTWPENSQQTPMCQAWGNPLPELKCLKDGTFPLPIGESVTVTRDLEGTYLCRARSTQGEVTRKVTVNVLSPRYEIVIITVVAAAVIMGTAGLSTYLYNRQRKIKKYRLQQAQKGTPMKPNTQATPP
B2: G46NN/ASI: ICAM-1 substitution mutant, G46NN to ASI (protein, UniProt P05362 28-532, looked up, variant G46A N47S N48I)
Intercellular adhesion …: B1 Intercellular adhesion … with G46A, N47S, N48I, N71D
B3: S3VS/AGL (protein, UniProt P05362 28-532, looked up, variant S3A V4G S5L)
Intercellular adhesion …: B1 Intercellular adhesion … with S3A, V4G, S5L, N71D
B4: Q62PM/API (protein, UniProt P05362 28-532, looked up, variant Q62A M64I)
Intercellular adhesion …: B1 Intercellular adhesion … with Q62A, M64I, N71D
B5: D71GQS/NGEL (protein, UniProt P05362 28-532, looked up, variant D71N Q73E S74L)
Intercellular adhesion …: B1 Intercellular adhesion … with Q73E, S74L
B6: N240DS/KNA (protein, UniProt P05362 28-532, looked up, variant N240K D241N S242A)
Intercellular adhesion …: B1 Intercellular adhesion … with N71D, N240K, D241N, S242A
B7: H152HGA/EEGS (protein, UniProt P05362 28-532, looked up, variant H152E H153E A155S)
Intercellular adhesion …: B1 Intercellular adhesion … with N71D, H152E, H153E, A155S
B8: N175TSA/QTLG (protein, UniProt P05362 28-532, looked up, variant N175Q S177L A178G)
Intercellular adhesion …: B1 Intercellular adhesion … with N71D, N175Q, S177L, A178G
B9: E111GGA/KAGS (protein, UniProt P05362 28-532, looked up, variant E111K G112A A114S)
Intercellular adhesion …: B1 Intercellular adhesion … with N71D, E111K, G112A, A114S
B10: D213GL/HGV (protein, UniProt P05362 28-532, looked up, variant D213H L215V)
Intercellular adhesion …: B1 Intercellular adhesion … with N71D, D213H, L215V
B11: D229QR/HLE (protein, UniProt P05362 28-532, looked up, variant D229H Q230L R231E)
Intercellular adhesion …: B1 Intercellular adhesion … with N71D, D229H, Q230L, R231E
B12: D203TQ/TAD (protein, UniProt P05362 28-532, looked up, variant D203T T204A Q205D)
Intercellular adhesion …: B1 Intercellular adhesion … with N71D, D203T, T204A, Q205D
B13: V136GE/GVK (protein, UniProt P05362 28-532, looked up, variant V136G G137V E138K)
Intercellular adhesion …: B1 Intercellular adhesion … with N71D, V136G, G137V, E138K
B14: R166PQ/EPA (protein, UniProt P05362 28-532, looked up, variant R166E Q168A)
Intercellular adhesion …: B1 Intercellular adhesion … with N71D, R166E, Q168A
B15: R149RD/EEG (protein, UniProt P05362 28-532, looked up, variant R149E R150E D151G)
Intercellular adhesion …: B1 Intercellular adhesion … with N71D, R149E, R150E, D151G
B16: Q58EDS/AKDI (protein, UniProt P05362 28-532, looked up, variant Q58A E59K S61I)
Intercellular adhesion …: B1 Intercellular adhesion … with Q58A, E59K, S61I, N71D

System: R6.5 mAb
Experiment: Indirect immunofluorescence flow cytofluorometry: mAb R6.5 binding to COS cells expressing ICAM-1 mutants (SLFI, % CL203)
Type: cell-based
Settings: SLFI normalized to CL203 SLFI of the mutant
Method: (§1) For HRV binding studies, COS cells were reseeded in a 24 well plate. One day later, the confluent monolayer was washed twice with 1 ml of RPMI 1640/10 mM MgCl2/25 mM Hepes pH 7.3 (rhinovirus-14 buffer). Transfected COS cells were labeled with 51Cr for binding to LFA-1 coated plastic as previously described (Staunton, D. E., et al., Nature 339:61-64 (1989). Immunoprecipitation and indirect immunofluorescence was performed using ICAM-1 MAb RR1/1 (Rothlein, R., et al., J. Immunol. 137:1270-1274 (1986)), R6.5 (Rothlein, R., et al., J. Immunol. 141:1665-1669 (1988)), LB-1 (Clark, E. A., et al., Hum. Immunol. 16:100-113 (1986)) and CL203 (Maio, M., J. Immunol. 143:181-188 (1989), all of which references are incorporated herein by reference).
(§2) Binding of RR1, R6.5, and LB-2 mAb was normalized to binding of CL203 mAb using Specific Linear Fluorescence Intensity (SLFI): % CL203=(mAbSLFI)×100)/CL203mABSLFI
(§3) In Table 25, the notation for the mutations uses the one-letter code for the wild-type sequence followed by a slash and the one-letter code for the corresponding mutant sequence. The position of the first amino acid within the sequence is indicated. Wild type residues precede the slash followed by the residues they were substituted for in the mutant. COS cells expressing ICAM-1 mutants were tested for adherence to LFA-1 coated plastic and for binding 35S met-labeled HRV14. LFA-1 and HRV14 binding is normalized for percent of cells expressing mutant ICAM-1 and for binding of wild type expressing cells. Binding is presented as mean and standard error (SE) for multiple experiments (n). Effects of two-fold or greater were reproducible in LFA-1, HRV and mAb binding assays and thus considered significant (bold and underlined). The specific linear fluorescence intensity (SLFI) of CL203 for each mutant is normalized to that of wild type CL203 SLFI (% WT) as discussed above. The SLFI of RR1/1, R6.5 and LB-2 SLFI is normalized to the CL203 SLFI of the mutant (% CL203) as described above.

Row | Molecule | SLFI (% CL203) R6.5 [% CL203]
1 | B1 | 94
2 | B2 | 107
3 | B3 | 31
4 | B4 | 81
5 | B5 | 48
6 | B6 | 125
7 | B7 | 94
8 | B8 | 50
9 | B9 | 0
10 | B10 | 175
11 | B11 | 92
12 | B12 | 116
13 | B13 | 172
14 | B14 | 109
15 | B15 | 189
16 | B16 | 22

System: RR1/1 mAb
Experiment: Indirect immunofluorescence flow cytofluorometry: mAb RR1/1 binding to COS cells expressing ICAM-1 mutants (SLFI, % CL203)
Type: cell-based
Settings: SLFI normalized to CL203 SLFI of the mutant
Method: as §1, §2, §3

Row | Molecule | SLFI (% CL203) RR/1 [% CL203]
17 | B1 | 44
18 | B2 | 140
19 | B3 | 5
20 | B4 | 59
21 | B5 | 0
22 | B6 | 113
23 | B7 | 103
24 | B8 | 19
25 | B9 | 81
26 | B10 | 231
27 | B11 | 94
28 | B12 | 178
29 | B13 | 220
30 | B14 | 100
31 | B15 | 166
32 | B16 | 10

Molecular target: T1, LFA-1 (Homo sapiens, UniProt P05107+P20701)
T1 construct: endogenous in cells
Experiment: Adherence of COS cells expressing ICAM-1 or ICAM-1 mutants to plastic-bound purified LFA-1
Type: cell-based
Settings: COS cells expressing ICAM-1 mutant adhering to LFA-1 coated plastic; normalized for percent of cells expressing mutant and for wild type binding; mean

T1 sequence (P20701 26-1170): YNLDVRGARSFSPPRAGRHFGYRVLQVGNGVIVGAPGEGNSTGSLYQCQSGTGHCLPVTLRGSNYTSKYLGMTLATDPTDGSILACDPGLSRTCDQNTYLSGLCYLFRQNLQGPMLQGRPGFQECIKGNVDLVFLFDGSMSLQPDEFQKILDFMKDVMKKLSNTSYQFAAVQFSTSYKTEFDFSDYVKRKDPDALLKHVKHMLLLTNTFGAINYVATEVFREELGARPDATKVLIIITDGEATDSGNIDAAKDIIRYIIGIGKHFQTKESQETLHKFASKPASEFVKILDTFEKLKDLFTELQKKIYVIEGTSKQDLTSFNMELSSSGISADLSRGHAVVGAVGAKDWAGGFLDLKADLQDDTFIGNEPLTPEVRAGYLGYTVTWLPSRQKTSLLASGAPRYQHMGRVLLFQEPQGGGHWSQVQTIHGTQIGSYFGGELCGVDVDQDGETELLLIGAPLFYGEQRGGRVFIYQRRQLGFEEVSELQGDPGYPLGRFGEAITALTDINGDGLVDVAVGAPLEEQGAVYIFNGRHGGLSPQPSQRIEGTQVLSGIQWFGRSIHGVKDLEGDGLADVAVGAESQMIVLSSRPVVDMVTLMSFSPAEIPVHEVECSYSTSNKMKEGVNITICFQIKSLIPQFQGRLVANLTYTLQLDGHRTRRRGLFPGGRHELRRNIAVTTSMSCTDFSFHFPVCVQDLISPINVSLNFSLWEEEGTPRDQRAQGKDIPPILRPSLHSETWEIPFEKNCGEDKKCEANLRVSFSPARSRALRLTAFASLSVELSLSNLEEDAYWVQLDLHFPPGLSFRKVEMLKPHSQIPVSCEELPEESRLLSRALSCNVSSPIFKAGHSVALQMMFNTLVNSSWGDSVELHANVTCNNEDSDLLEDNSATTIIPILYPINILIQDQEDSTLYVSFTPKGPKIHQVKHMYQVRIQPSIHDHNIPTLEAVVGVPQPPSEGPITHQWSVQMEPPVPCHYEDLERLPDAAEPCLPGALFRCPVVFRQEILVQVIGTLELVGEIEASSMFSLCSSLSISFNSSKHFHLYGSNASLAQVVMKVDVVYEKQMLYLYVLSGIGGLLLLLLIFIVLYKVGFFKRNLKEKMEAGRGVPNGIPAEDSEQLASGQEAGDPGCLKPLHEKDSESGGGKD
T1 sequence (P05107 23-769): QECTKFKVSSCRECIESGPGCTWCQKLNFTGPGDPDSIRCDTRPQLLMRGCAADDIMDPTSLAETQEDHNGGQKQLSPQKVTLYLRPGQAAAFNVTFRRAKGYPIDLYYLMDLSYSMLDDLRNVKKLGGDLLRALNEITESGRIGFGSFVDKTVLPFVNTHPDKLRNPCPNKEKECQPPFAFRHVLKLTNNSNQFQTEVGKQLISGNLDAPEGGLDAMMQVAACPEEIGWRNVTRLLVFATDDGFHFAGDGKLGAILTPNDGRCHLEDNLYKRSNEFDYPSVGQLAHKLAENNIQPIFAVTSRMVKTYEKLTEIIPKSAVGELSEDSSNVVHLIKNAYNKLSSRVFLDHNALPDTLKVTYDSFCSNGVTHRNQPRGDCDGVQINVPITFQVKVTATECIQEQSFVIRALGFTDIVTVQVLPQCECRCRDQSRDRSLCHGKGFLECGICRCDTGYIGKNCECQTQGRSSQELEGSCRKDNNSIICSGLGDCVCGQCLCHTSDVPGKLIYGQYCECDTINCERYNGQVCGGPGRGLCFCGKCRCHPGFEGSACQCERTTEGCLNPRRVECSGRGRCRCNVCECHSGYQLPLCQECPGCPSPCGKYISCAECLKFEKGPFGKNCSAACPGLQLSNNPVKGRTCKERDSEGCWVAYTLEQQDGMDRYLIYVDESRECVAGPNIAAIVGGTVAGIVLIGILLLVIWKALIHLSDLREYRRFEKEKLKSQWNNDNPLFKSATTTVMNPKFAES

Row | Molecule | LFA-1 Binding % [%]
33 | B1 | 79
34 | B2 | 49
35 | B3 | 18
36 | B4 | 104
37 | B5 | 1
38 | B6 | 147
39 | B7 | 85
40 | B8 | 26
41 | B9 | 103
42 | B10 | 90
43 | B11 | 90
44 | B12 | 91
45 | B13 | 92
46 | B14 | 75
47 | B15 | 81
48 | B16 | 3

System: CL203 mAb
Experiment: Indirect immunofluorescence flow cytofluorometry: mAb CL203 binding to COS cells expressing ICAM-1 mutants (SLFI, % WT)
Type: cell-based
Settings: SLFI of CL203 for mutant normalized to wild type CL203 SLFI; level of expression
Method: as §1, §2, §3

Row | Molecule | Cl203 % WT (SLFI) [% WT]
49 | B1 | 109
50 | B2 | 151
51 | B3 | 121
52 | B4 | 200
53 | B5 | 161
54 | B6 | 142
55 | B7 | 94
56 | B8 | 75
57 | B9 | 122
58 | B10 | 128
59 | B11 | 210
60 | B12 | 125
61 | B13 | 171
62 | B14 | 94
63 | B15 | 159
64 | B16 | 98

System: LB-2 mAb
Experiment: Indirect immunofluorescence flow cytofluorometry: mAb LB-2 binding to COS cells expressing ICAM-1 mutants (SLFI, % CL203)
Type: cell-based
Settings: SLFI normalized to CL203 SLFI of the mutant
Method: as §1, §2, §3

Row | Molecule | SLFI (% CL203) LB-2 [% CL203]
65 | B1 | 83
66 | B2 | 113
67 | B3 | 9
68 | B4 | 73
69 | B5 | 26
70 | B6 | 132
71 | B7 | 112
72 | B8 | 44
73 | B9 | 89
74 | B10 | 107
75 | B11 | 100
76 | B12 | 86
77 | B13 | 138
78 | B14 | 64
79 | B15 | 166
80 | B16 | 7

System: HRV14
Experiment: Binding of [^35S]-Met labeled HRV14 to COS cells expressing ICAM-1 mutants
Type: cell-based, human rhinovirus 14
Settings: 35S met-labeled HRV14 binding to COS cells expressing ICAM-1 mutant; normalized for percent of cells expressing mutant and for wild type binding; mean

Row | Molecule | HRV Binding % [%]
81 | B1 | 62
82 | B2 | 9
83 | B3 | 61
84 | B4 | 182
85 | B5 | 21
86 | B6 | 82
87 | B7 | 82
88 | B8 | 40
89 | B9 | 162
90 | B10 | 99
91 | B11 | 106
92 | B12 | 111
93 | B13 | 117
94 | B14 | 25
95 | B15 | 139
96 | B16 | 0

Same assay, conditions: COS cells expressing the mutant, relative to wild type

Row | Molecule | decrease in HRV14 binding
97 | B1 | two-fold
98 | B2 | ten-fold
